Measured values: patent publication US20240218062A1 (DEVELOPMENT CENTER FOR BIOTECHNOLOGY, published 2024)

Legend:
[1] = target: NTSR1 linear L2-biotin protein (human) (UniProt P30989); assay: ELISA titration on NTSR1, anti-human IgG-HRP, OD450 minus OD650
NTSR1 protein = NTSR1 protein (UniProt P30989 1-418, limits assumed); assay: SPR, Biacore T200, NTSR1 protein on CM5 chip, multi-cycle kinetics, 25 C
Protocol: To know the binding kinetics differences among individual anti-NTSR1 antibodies, surface plasmon resonance (SPR) measurement with BIACORE™ T200 (CYTIVA® Inc.) was used as previously described (Karlsson & Falt, (1997) J. Immunol Methods 200:121-133). Carboxymethylated dextran biosensor chips (CM5, CYTIVA® Inc.) were activated with N-ethyl-N′-(3-dimethylaminopropyl)-carbodiimide hydrochloride (EDC) and N-hydroxysuccinimide (NHS) according to the supplier's instructions. NTSR1 protein was diluted with 10 mM sodium acetate, pH 4.0, into 5 μg/ml before injection at a flow rate of 10 μL/minute to achieve approximately 1500 response units (RU) of coupled protein followed by the injection of 1 M ethanolamine to block unreacted groups. For kinetics measurements, two-fold serial dilutions of anti-NTSR1 mAb (0.3125 nM to 40 nM) were injected in HBS-EP+BIACORET™ running buffer provided by the manufacturer (CYTIVA® Inc.) at 25° C. at a flow rate of 30 μL/min, and binding responses on the NTSR1 protein were corrected by subtraction of responses on a blank flow cell. Association rates (kₒₙ or Kₐ) and dissociation rates (koff or Kd) were calculated using a simple one-to-one Langmuir binding model with separate fittings of kₒₙ and koff. (CYTIVA® BIACORET™ Insight Evaluation Software).

NTSR1 on FaDu cells [2] = target: T1, NTSR1 on FaDu cells (human, UniProt P30989 1-418); assay: flow cytometry on FaDu cells (internalization assay), 10 µg/mL ADC on ice for 60 min, anti-human IgG PE [left panel (Trimannosyl anti-NTSR1 ADC]
T1 construct: whole, on cells; Endogenous NTSR1 on the human FaDu cell line; also called NTSR1 expressing cells, FaDu
Protocol: FaDu cells were trypsinized, and then harvested and resuspended in FAC buffer. Controls: secondary Ab anti-human IgG PE (1:200) was added to the FaDu cells. The cells were incubated at 4° C. for time intervals of 0, 0.5, 2, 5 and 24 hours, and then washed by 1 mL of FACS buffer. The supernatant was discarded. Testing groups: FaDu cells were pre-incubated with 10 μg/mL ADCs of trimannosyl and anti-NTSR1 antibodies αNTSR1 (AKT2), αNTSR1 (AKT2 Hu/Hu) and αNTSR1 (AKT2 Hu/Hd) in FACS buffer on ice for 60 min, washed three times with FACS buffer, and then incubated at 37° C. for time intervals of 0, 0.5, 2, 5 and 24 hours.

NTSR1 on FaDu cells [3] = target: T1, NTSR1 on FaDu cells; assay: flow cytometry on FaDu cells, antibody at 1 ug/mL
Protocol: (§1) Anti-NTSR1 antibodies were used to detect cells that express NTSR1 on the cell surfaces, for example using FACS. NTSR1 expressing cells, FaDu, were harvested and re-suspended in 5% PBS/FBS buffer. The cells (1×10⁵) were incubated with anti-NTSR1 antibody (1-10 μg/ml) or negative control, at 4° C. for 1 hr, and then stained with goat anti-human IgG FITC conjugate ( 1/1000) at 4° C. for 1 hr. For each assay, two additional controls were prepared; one without primary antibody and the other one with absence of any antibody. All treated samples were analyzed with […]™ (BECTON DICKINSON®) and the results were processed by […]™ software (BECTON DICKINSON®).

NTSR1 on FaDu cells [4] = target: T1, NTSR1 on FaDu cells; assay: flow cytometry on FaDu cells, antibody at 10 ug/ml
Protocol: as §1

[5] = target: NTSR1 linear L2-biotin protein (human) (UniProt P30989); assay: ELISA on coated NTSR1 linear L2-biotin protein, non-linear regression
[6] = target: NTSR1 linear L2-biotin protein (human) (UniProt P30989); assay: ELISA titration, plate coated with NTSR1 linear L2-biotin protein, anti-human IgG-HRP

NTSR1 protein, sequence (P30989 whole entry): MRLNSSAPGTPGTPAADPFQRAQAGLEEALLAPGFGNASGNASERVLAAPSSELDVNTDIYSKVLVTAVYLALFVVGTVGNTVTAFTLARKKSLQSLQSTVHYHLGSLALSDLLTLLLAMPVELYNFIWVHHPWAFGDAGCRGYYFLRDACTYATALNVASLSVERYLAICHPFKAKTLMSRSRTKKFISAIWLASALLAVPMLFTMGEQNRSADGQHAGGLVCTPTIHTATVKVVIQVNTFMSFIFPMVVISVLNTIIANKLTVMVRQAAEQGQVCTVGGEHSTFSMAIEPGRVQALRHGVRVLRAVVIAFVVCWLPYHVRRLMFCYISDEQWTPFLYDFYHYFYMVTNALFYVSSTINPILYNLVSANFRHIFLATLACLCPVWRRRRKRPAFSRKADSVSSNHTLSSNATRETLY
T1 sequence (P30989 whole entry): as above

EC50 (read off the curve) [1] [nM] | Kd (NTSR1 protein) [nM] | koff (NTSR1 protein) [s⁻¹] | kon (NTSR1 protein) [M⁻¹ s⁻¹] | binding result (NTSR1 on FaDu cells [2]) | % Flow binding (1 ug/mL) (NTSR1 on FaDu cells [3]) [%] | % Flow binding (10 ug/ml) (NTSR1 on FaDu cells [4]) [%] | Binder | further results
 |  |  |  |  | 31 | 91 | mouse-human chimera antibody 7C3 MM (antibody, V domains shown, Mouse 7C3 variable domains sub-cloned into the human Fc chimera expression vectors pTCAEDH and pTCAEDL; The humanized plasmids are named IgG1 and Kappa; also called m7C3; mAb 7C3 MM) VH: QVQLQQPGSVLVRPGDSVMLSCKASGYTFTSSWIHWAKQRPGQGPEWIGQIRPNSGNTYYNEKFKVKATLTVDTSSSTAYVDLSSLTSEDSAVYYCARYYYGFDYWGQGTTVTVSS VL: DVLMTQTPLSLPVSLGDQASISCRSSQSIVHSNGNTYLEWYLQKPGQSPKLLIYKVSNRFSGVPDRFSGSGSGTDFTLKISRVEAEDLGVYYCFQGSHLPWTFGGGTKLEIK | Kd [5]: 0.676 nM; EC50 (read off the curve) [6]: 0.07 nM
 |  |  |  | binds |  |  | αNTSR1 (AKT2 Hu/Hd) 4 seco-DUBA (antibody, V domains shown, seco-DUBA payload conjugated (trimannosyl ADC); site of conjugation not given, Antibody-drug conjugate of the humanized antibody AKT2 HuHd with seco-DUBA; also called trimannosyl anti-NTSR1 ADC of AKT2 HuHd) VH: QVQLVQSGAEVKKPGASVKVSCKASGYAFTSSWIHWVRQAPGQGLEWMGQIRPNSGNTYYNEKFKVRVTMTRDTSTSTVYMELSSLRSEDTAVYYCARYHYGFDYWGQGTLVTVSS VL: DIQMTQSPSSLSASVGDRVTITCRSSQSIVHSNGNTYLEWYQQKPGKAPKLLIYKVSNRFSGVPSRFSGSGSGTDFTLTISSLQPEDFATYYCFQGAHLPWTFGQGTKVEIK | 
 |  |  |  | binds |  |  | αNTSR1 (AKT2 Hu/Hu) 4 seco-DUBA (antibody, V domains shown, seco-DUBA payload conjugated (trimannosyl ADC); site of conjugation not given, Antibody-drug conjugate of the humanized antibody AKT2 HuHu with seco-DUBA; also called trimannosyl anti-NTSR1 ADC of AKT2 HuHu) VH: QVQLVQSGAEVKKPGASVKVSCKASGYAFTSSWIHWVRQAPGQGLEWMGQIRPNSGNTYYNEKFKVRVTMTRDTSTSTVYMELSSLRSEDTAVYYCARYHYGFDYWGQGTLVTVSS VL: DIVMTQTPLSLSVTPGQPASISCRSSQSIVHSNGNTYLEWYLQKPGQSPQLLIYKVSNRFSGVPDRFSGSGSGTDFTLKISRVEAEDVGVYYCFQGAHLPWTFGQGTKVEIK | 
 |  |  |  |  | 73 | 99 | humanized antibody 7C3 HuHd (antibody, V domains shown, Full-length antibody from the human Fc vectors) VH: QVQLVQSGAEVKKPGASVKVSCKASGYTFTSSWIHWVRQAPGQGLEWMGQIRPNSGNTYYNEKFKVRVTMTRDTSTSTVYMELSSLRSEDTAVYYCARYYYGFDYWGQGTLVTVSS VL: DIQMTQSPSSLSASVGDRVTITCRSSQSIVHSNGNTYLEWYQQKPGKAPKLLIYKVSNRFSGVPSRFSGSGSGTDFTLTISSLQPEDFATYYCFQGSHLPWTFGQGTKVEIK | 
 |  |  |  |  | 64 | 98 | humanized 7C3 IMGT (7C3 HuHu) (antibody, V domains shown, Full-length antibody with human IgG1 / kappa constant regions (plasmids pTCAEDH 7C3 HUVH IgG1 and pTCAEDL 7C3 HUVL Kappa)) VH: QVQLVQSGAEVKKPGASVKVSCKASGYTFTSSWIHWVRQAPGQGLEWMGQIRPNSGNTYYNEKFKVRVTMTRDTSTSTVYMELSSLRSEDTAVYYCARYYYGFDYWGQGTLVTVSS VL: DIVMTQTPLSLSVTPGQPASISCRSSQSIVHSNGNTYLEWYLQKPGQSPQLLIYKVSNRFSGVPDRFSGSGSGTDFTLKISRVEAEDVGVYYCFQGSHLPWTFGQGTKVEIK | Kd [5]: 0.294 nM; EC50 (read off the curve) [6]: 0.03 nM

Second part, the binder before the results:

Binder | EC50 (read off the curve) [1] [nM] | Kd (NTSR1 protein) [nM] | koff (NTSR1 protein) [s⁻¹] | kon (NTSR1 protein) [M⁻¹ s⁻¹] | binding result (NTSR1 on FaDu cells [2]) | % Flow binding (1 ug/mL) (NTSR1 on FaDu cells [3]) [%] | % Flow binding (10 ug/ml) (NTSR1 on FaDu cells [4]) [%] | further results
mouse-human chimera antibody AKT2 (antibody, V domains shown, Mouse variable domains on human constant regions; also called chimera AKT2 mAb; αNTSR1 (AKT2)) VH: QVQLQQPGSVLVRPGASVKLSCKASGYAFTSSWIHWAKQRPGQGLEWIGQIRPNSGNTYYNEKFKVKATLTVDTSSSTAYVDLSSLTSEDSAVYYCARYHYGFDYWGQGTLVTVSS VL: DVLMTQTPLSLPVSLGDQASISCRSSQSIVHSNGNTYLEWYLQKPGQSPKLLIYKVSNRFSGVPDRFSGSGSGTDFTLKISRVEAEDLGVYYCFQGAHLPWTFGGGTKLEIK | 0.06 | 1.61 | 0.000656 | 407000 |  |  |  | 
αNTSR1 (AKT2) 4 seco-DUBA (antibody, V domains shown, seco-DUBA payload conjugated (trimannosyl ADC); site of conjugation not given, Antibody-drug conjugate of the mouse-human chimera antibody AKT2 with seco-DUBA; also called trimannosyl anti-NTSR1 ADC of AKT2) VH: QVQLQQPGSVLVRPGASVKLSCKASGYAFTSSWIHWAKQRPGQGLEWIGQIRPNSGNTYYNEKFKVKATLTVDTSSSTAYVDLSSLTSEDSAVYYCARYHYGFDYWGQGTLVTVSS VL: DVLMTQTPLSLPVSLGDQASISCRSSQSIVHSNGNTYLEWYLQKPGQSPKLLIYKVSNRFSGVPDRFSGSGSGTDFTLKISRVEAEDLGVYYCFQGAHLPWTFGGGTKLEIK |  |  |  |  | binds |  |  | 
humanized antibody AKT2 HuHd (antibody, V domains shown, Full-length humanized antibody; also called αNTSR1 (AKT2 Hu/Hd)) VH: QVQLVQSGAEVKKPGASVKVSCKASGYAFTSSWIHWVRQAPGQGLEWMGQIRPNSGNTYYNEKFKVRVTMTRDTSTSTVYMELSSLRSEDTAVYYCARYHYGFDYWGQGTLVTVSS VL: DIQMTQSPSSLSASVGDRVTITCRSSQSIVHSNGNTYLEWYQQKPGKAPKLLIYKVSNRFSGVPSRFSGSGSGTDFTLTISSLQPEDFATYYCFQGAHLPWTFGQGTKVEIK | 0.06 | 1.43 | 0.000657 | 461000 |  |  |  | 
humanized antibody AKT2 HuHu (antibody, V domains shown, Full-length humanized antibody; also called αNTSR1 (AKT2 Hu/Hu)) VH: QVQLVQSGAEVKKPGASVKVSCKASGYAFTSSWIHWVRQAPGQGLEWMGQIRPNSGNTYYNEKFKVRVTMTRDTSTSTVYMELSSLRSEDTAVYYCARYHYGFDYWGQGTLVTVSS VL: DIVMTQTPLSLSVTPGQPASISCRSSQSIVHSNGNTYLEWYLQKPGQSPQLLIYKVSNRFSGVPDRFSGSGSGTDFTLKISRVEAEDVGVYYCFQGAHLPWTFGQGTKVEIK | 0.06 | 1.03 | 0.000808 | 788000 |  |  |  | 
